± gives the uncertainty stated by the source.
Test: self-splicing fitness, log relative to wild type (ln ratio); higher = more splicing; Tetrahymena group I intron in knt gene, E. coli kanamycin selection, DiMSum; sequences stand for … in CUCUCU…GGAGGGAAAAGUUAUCAGGCAUGCACCUGGUAGCUAGUCUUUAAACCAAUAGAUUGCAUCGGUUUAAAAGGCAAGACCGUCAAAUUGCGGGAAAGGGGUCAACAGCCGUUCAGUACCAAGUCUCAGGGGAAACUUUGAGAUGGCCUUGCAAAGGGUAUGGUAAUAAGCUGACGGACAUGGUCCUAACCACGCAGCCAAGUCCUAAGUCAACAGAUCUUCUGUUGAUAUGGAUGCAGUUCACAGACUAAAUGUCGGUCGGGGAAGAUGUAUUCUUCUCAUAAGAUAUAGUCGGACCUCUCCUUAAUGGGAGCUAGCGGAUGAAGUGAUGCAACACUGGAGCCGCUGGGAACUAAUUUGUAUGCGAAAGUAUAUUGAUUAGUUUUGGAGUACUCGUGGUCG
Procedure, shortened: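 Fitness was computed with DiMSum as the error-weighted combination of replicate fold changes, kanamycin versus none, each normalised to wild type. The library randomised all eight intron nucleotides of the P1ex region, with the intron placed in the knt kanamycin-resistance gene on pET-22b(+) in E. coli BL21(DE3). Six replicate transformations were grown overnight at 37°C or 30°C on LB agar with or without 25 μg/mL kanamycin, plus 100 μg/mL carbenicillin, 50 μM IPTG and 0.2% rhamnose. Pooled colonies were amplicon-sequenced on an Illumina HiSeq 2500.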

Sequence: UCAAAGCAAUAUUACGCUCG
- self-splicing fitness (ln) (30 °C): -0.615 ± 0.081
- self-splicing fitness (ln) (37 °C): -0.0673 ± 0.12

Sequence: UAUUAGCAAUAUUACGAAUA
- self-splicing fitness (ln) (30 °C): -0.842 ± 0.38
- self-splicing fitness (ln) (37 °C): -0.292 ± 0.38

Sequence: CCAUAGCAAUAUUACGAUCA
- self-splicing fitness (ln) (30 °C): -2.94 ± 0.18
- self-splicing fitness (ln) (37 °C): -3.23 ± 0.29

Sequence: UCGUAGCAAUAUUACGGGCA
- self-splicing fitness (ln) (30 °C): -0.422 ± 0.14
- self-splicing fitness (ln) (37 °C): -0.0787 ± 0.13

Sequence: CCAGAGCAAUAUUACGUUCU
- self-splicing fitness (ln) (30 °C): -3.71 ± 0.31
- self-splicing fitness (ln) (37 °C): -1.84 ± 0.31

Sequence: UUUUAGCAAUAUUACGGCCG
- self-splicing fitness (ln) (30 °C): -0.37 ± 0.24

Sequence: AGGAAGCAAUAUUACGCUAC
- self-splicing fitness (ln) (30 °C): -3.48 ± 0.41
- self-splicing fitness (ln) (37 °C): -2.99 ± 0.47

Sequence: AAUCAGCAAUAUUACGAAGU
- self-splicing fitness (ln) (30 °C): -0.414 ± 0.059
- self-splicing fitness (ln) (37 °C): 0.136 ± 0.084

Sequence: GACUAGCAAUAUUACGCACA
- self-splicing fitness (ln) (30 °C): -0.58 ± 0.13
- self-splicing fitness (ln) (37 °C): 0.00566 ± 0.14

Sequence: GGAUAGCAAUAUUACGUUAG
- self-splicing fitness (ln) (37 °C): -2 ± 0.23

Sequence: UUACAGCAAUAUUACGUAUA
- self-splicing fitness (ln) (30 °C): -1.59 ± 0.11
- self-splicing fitness (ln) (37 °C): -0.688 ± 0.14

Sequence: GAUCAGCAAUAUUACGGUGU
- self-splicing fitness (ln) (30 °C): -0.951 ± 0.072
- self-splicing fitness (ln) (37 °C): 0.335 ± 0.093

Sequence: UCUGAGCAAUAUUACGCUAA
- self-splicing fitness (ln) (30 °C): -3.49 ± 0.34

Sequence: UUCCAGCAAUAUUACGACUA
- self-splicing fitness (ln) (30 °C): -0.435 ± 0.097
- self-splicing fitness (ln) (37 °C): -0.117 ± 0.085

Sequence: CUCUAGCAAUAUUACGAUAG
- self-splicing fitness (ln) (30 °C): -3.88 ± 0.2
- self-splicing fitness (ln) (37 °C): -3.58 ± 0.28

Sequence: CUUCAGCAAUAUUACGACUU
- self-splicing fitness (ln) (30 °C): -4.07 ± 0.29
- self-splicing fitness (ln) (37 °C): -2.34 ± 0.21

Sequence: UCAUAGCAAUAUUACGCGCC
- self-splicing fitness (ln) (30 °C): -3.62 ± 0.44
- self-splicing fitness (ln) (37 °C): -1.88 ± 0.33

Sequence: GAGCAGCAAUAUUACGGCGA
- self-splicing fitness (ln) (30 °C): -1.21 ± 0.099
- self-splicing fitness (ln) (37 °C): -0.604 ± 0.11

Sequence: UUGCAGCAAUAUUACGAGCU
- self-splicing fitness (ln) (30 °C): -2.6 ± 0.1
- self-splicing fitness (ln) (37 °C): -1.37 ± 0.11

Sequence: UUCCAGCAAUAUUACGGUUG
- self-splicing fitness (ln) (30 °C): -2.43 ± 0.11
- self-splicing fitness (ln) (37 °C): -1.75 ± 0.16

Sequence: UUCGAGCAAUAUUACGCUAG
- self-splicing fitness (ln) (30 °C): -2.82 ± 0.26
- self-splicing fitness (ln) (37 °C): -2.05 ± 0.42

Sequence: UGGAAGCAAUAUUACGUACC
- self-splicing fitness (ln) (30 °C): -1.73 ± 0.19
- self-splicing fitness (ln) (37 °C): -0.601 ± 0.23

Sequence: CGACAGCAAUAUUACGGCCA
- self-splicing fitness (ln) (30 °C): -1.16 ± 0.15
- self-splicing fitness (ln) (37 °C): -0.534 ± 0.18

Sequence: AUACAGCAAUAUUACGGGUC
- self-splicing fitness (ln) (30 °C): -3.7 ± 0.21
- self-splicing fitness (ln) (37 °C): -2.48 ± 0.19

Sequence: UCCUAGCAAUAUUACGCAGU
- self-splicing fitness (ln) (30 °C): -3.03 ± 0.15
- self-splicing fitness (ln) (37 °C): -2.54 ± 0.2

Sequence: CGCGAGCAAUAUUACGCAAA
- self-splicing fitness (ln) (30 °C): -2.95 ± 0.38
- self-splicing fitness (ln) (37 °C): -3.4 ± 0.43

Sequence: CGUAAGCAAUAUUACGCCGC
- self-splicing fitness (ln) (30 °C): -1.76 ± 0.45
- self-splicing fitness (ln) (37 °C): -2.13 ± 0.42

Sequence: GCUUAGCAAUAUUACGGAGG
- self-splicing fitness (ln) (30 °C): -1.54 ± 0.1
- self-splicing fitness (ln) (37 °C): -0.819 ± 0.094

Sequence: GAGGAGCAAUAUUACGUCAA
- self-splicing fitness (ln) (30 °C): -2.72 ± 0.31

Sequence: AAUGAGCAAUAUUACGGACG
- self-splicing fitness (ln) (30 °C): -2.44 ± 0.2

Sequence: GUCUAGCAAUAUUACGCAUG
- self-splicing fitness (ln) (30 °C): -0.786 ± 0.1
- self-splicing fitness (ln) (37 °C): -0.64 ± 0.16

Sequence: UAGAAGCAAUAUUACGCUUG
- self-splicing fitness (ln) (30 °C): -2.11 ± 0.11
- self-splicing fitness (ln) (37 °C): -1.05 ± 0.12

Sequence: CUAGAGCAAUAUUACGAGAC
- self-splicing fitness (ln) (30 °C): -2.63 ± 0.29
- self-splicing fitness (ln) (37 °C): -0.86 ± 0.3

Sequence: ACCAAGCAAUAUUACGGCUU
- self-splicing fitness (ln) (30 °C): -3.85 ± 0.2
- self-splicing fitness (ln) (37 °C): -1.85 ± 0.16

Sequence: CGAUAGCAAUAUUACGGGAU
- self-splicing fitness (ln) (30 °C): -4.23 ± 0.31
- self-splicing fitness (ln) (37 °C): -2.86 ± 0.27

Sequence: CGGUAGCAAUAUUACGUCAA
- self-splicing fitness (ln) (30 °C): -1.08 ± 0.29

Sequence: UCGGAGCAAUAUUACGUUGA
- self-splicing fitness (ln) (30 °C): -2.58 ± 0.25
- self-splicing fitness (ln) (37 °C): -1.22 ± 0.16

Sequence: UAUUAGCAAUAUUACGUAAC
- self-splicing fitness (ln) (30 °C): -1.8 ± 0.19
- self-splicing fitness (ln) (37 °C): -1.09 ± 0.2

Sequence: ACAGAGCAAUAUUACGGGGA
- self-splicing fitness (ln) (30 °C): -4.66 ± 0.34
- self-splicing fitness (ln) (37 °C): -3.55 ± 0.25

Sequence: AGAUAGCAAUAUUACGCACG
- self-splicing fitness (ln) (30 °C): -1.13 ± 0.14
- self-splicing fitness (ln) (37 °C): -0.355 ± 0.12

Sequence: CUGAAGCAAUAUUACGAAGA
- self-splicing fitness (ln) (30 °C): -2.5 ± 0.36
- self-splicing fitness (ln) (37 °C): -0.888 ± 0.25

Sequence: GGAUAGCAAUAUUACGUCCU
- self-splicing fitness (ln) (30 °C): -3.13 ± 0.19
- self-splicing fitness (ln) (37 °C): -1.84 ± 0.24

Sequence: UCACAGCAAUAUUACGACAA
- self-splicing fitness (ln) (30 °C): -1.3 ± 0.13
- self-splicing fitness (ln) (37 °C): -0.0758 ± 0.096

Sequence: UGGUAGCAAUAUUACGCCGU
- self-splicing fitness (ln) (30 °C): -1.56 ± 0.27
- self-splicing fitness (ln) (37 °C): -1.42 ± 0.36

Sequence: GCACAGCAAUAUUACGCGCA
- self-splicing fitness (ln) (30 °C): -0.993 ± 0.099
- self-splicing fitness (ln) (37 °C): -0.327 ± 0.093

Sequence: AAUUAGCAAUAUUACGACGG
- self-splicing fitness (ln) (30 °C): -0.969 ± 0.14
- self-splicing fitness (ln) (37 °C): -0.972 ± 0.25

Sequence: GACCAGCAAUAUUACGUCGU
- self-splicing fitness (ln) (30 °C): -0.568 ± 0.052
- self-splicing fitness (ln) (37 °C): -0.218 ± 0.069

Sequence: AUUGAGCAAUAUUACGGCUC
- self-splicing fitness (ln) (37 °C): -1.77 ± 0.32

Sequence: UGGUAGCAAUAUUACGAACC
- self-splicing fitness (ln) (30 °C): -2.54 ± 0.29
- self-splicing fitness (ln) (37 °C): -1.93 ± 0.28

Sequence: CUCAAGCAAUAUUACGCGCC
- self-splicing fitness (ln) (30 °C): -1.95 ± 0.32
- self-splicing fitness (ln) (37 °C): -1.15 ± 0.26

Sequence: UACCAGCAAUAUUACGGACU
- self-splicing fitness (ln) (30 °C): -0.102 ± 0.073
- self-splicing fitness (ln) (37 °C): 0.199 ± 0.098

Sequence: UGAAAGCAAUAUUACGUUCG
- self-splicing fitness (ln) (30 °C): -1.51 ± 0.094
- self-splicing fitness (ln) (37 °C): -0.54 ± 0.11

Sequence: GUUGAGCAAUAUUACGAGCA
- self-splicing fitness (ln) (30 °C): -2.68 ± 0.28
- self-splicing fitness (ln) (37 °C): -1.71 ± 0.32

Sequence: AUAGAGCAAUAUUACGUUAA
- self-splicing fitness (ln) (30 °C): -2.32 ± 0.19
- self-splicing fitness (ln) (37 °C): -1.76 ± 0.23

Sequence: UGGCAGCAAUAUUACGAAGC
- self-splicing fitness (ln) (37 °C): -1.72 ± 0.45

Sequence: GCAUAGCAAUAUUACGAUCG
- self-splicing fitness (ln) (30 °C): -1.04 ± 0.11
- self-splicing fitness (ln) (37 °C): -0.34 ± 0.12

Sequence: GUGCAGCAAUAUUACGUUCA
- self-splicing fitness (ln) (30 °C): 0.191 ± 0.072
- self-splicing fitness (ln) (37 °C): -0.181 ± 0.081

Sequence: GACCAGCAAUAUUACGAGAA
- self-splicing fitness (ln) (30 °C): -1.67 ± 0.15
- self-splicing fitness (ln) (37 °C): -1.05 ± 0.15

Sequence: CGUAAGCAAUAUUACGGGAG
- self-splicing fitness (ln) (30 °C): -2.21 ± 0.22
- self-splicing fitness (ln) (37 °C): -2.81 ± 0.36

Sequence: AACGAGCAAUAUUACGAUAA
- self-splicing fitness (ln) (30 °C): -3.76 ± 0.2
- self-splicing fitness (ln) (37 °C): -2.94 ± 0.21

Sequence: CUCGAGCAAUAUUACGCGCC
- self-splicing fitness (ln) (30 °C): -2.53 ± 0.19
- self-splicing fitness (ln) (37 °C): -2.12 ± 0.37

Sequence: GUCCAGCAAUAUUACGUCAA
- self-splicing fitness (ln) (30 °C): -1.23 ± 0.12
- self-splicing fitness (ln) (37 °C): -1.99 ± 0.14

From the supplement of paper PMC7877785
